Experimental data: article PMC7018016, “Superstructure formation by RodZ hexamers of Shigella sonnei maintains the rod shape of bacilli” (PLoS ONE, 2020)
Several values for one entry are separate records, joined by “and”; a condition that tells them apart may be missing. Equal values may be shown once.

B1: RodZ_(50–337) (domain or fragment)
chain: DKAPADLASTFLRGYIRSYARLVHIPEEELLPGLEKQAPLRAAKVAPMQSFSLGKRRKKRDGWLMTFTWLVLFVVIGLSGAWWWQDHKAQQEEITTMADQSSAELSSNSEQGQSVPLNTSTTTDPATTSTPPASVDTTATNTQTPAVTAPAPAVDPQQNAVVSPSQANVDTAATPVPTAATTPDGAAPLPTDQAGVTTPAADPNALVMNFTADCWLEVTDATGKKLFSGMQRKDGNLNLTGQAPYKLKIGAPAAVQIQYQGKPVDLSRFIRTNQVARLTLNAEQSPAQ
notes: RodZ of Shigella sonnei, residues 50-337; The forward primer adds a start methionine before D50; calculated mass 31.64 kDa; also called N-terminal deletion RodZ_(50-337); not shown: His6, C-terminal, kept
B2: RodZ_(1–142) (domain or fragment)
chain: MNTEATHDQNEALTTGARLRNAREQLGLSQQAVAERLCLKVSTVRDIEEDKAPADLASTFLRGYIRSYARLVHIPEEELLPGLEKQAPLRAAKVAPMQSFSLGKRRKKRDGWLMTFTWLVLFVVIGLSGAWWWQDHKAQQEE
notes: RodZ of Shigella sonnei, residues 1-142; not shown: His6, C-terminal, kept
B3: RodZwt (wild-type RodZ of Shigella sonnei, his6-tagged) (natural protein, S. sonnei, UniProt Q3YZ36 1-337, looked up)
chain: MNTEATHDQNEALTTGARLRNAREQLGLSQQAVAERLCLKVSTVRDIEEDKAPADLASTFLRGYIRSYARLVHIPEEELLPGLEKQAPLRAAKVAPMQSFSLGKRRKKRDGWLMTFTWLVLFVVIGLSGAWWWQDHKAQQEEITTMADQSSAELSSNSEQGQSVPLNTSTTTDPATTSTPPASVDTTATNTQTPAVTAPAPAVDPQQNAVVSPSQANVDTAATPVPTAATTPDGAAPLPTDQAGVTTPAADPNALVMNFTADCWLEVTDATGKKLFSGMQRKDGNLNLTGQAPYKLKIGAPAAVQIQYQGKPVDLSRFIRTNQVARLTLNAEQSPAQ
notes: RodZ of Shigella sonnei MS390, whole rodZ amplified with primers from the start codon to the last codon (337 residues); Cloned NdeI-XhoI into pET22b; predicted mass 36.83 kDa; The XhoI site of pET22b probably adds Leu-Glu before the his6 tag (surmise); also called his6-tagged RodZ; purified RodZwt; not shown: His6, C-terminal, kept

Columns and labels:
[1] = target: RodZ_(ΔKRRKKR) (S. sonnei) (UniProt Q3YZ36); experiment: native gel or EMSA; 3%–12% BN-PAGE (NativePAGE Novex Bis-Tris), CBB without SDS, loading buffer with mild detergents; 5 μl of each purified protein
[2] = target: the molecule itself; experiment: as above
[3] = target: the molecule itself; experiment: cross-linking + other: High-Mass MALDI-TOF MS; serial dilutions (1 mg/ml–19.53 μg/ml) in PBS, treated with K200 Stabilizer crosslinker, CovalX HM3 module, 0–1500 kDa; Complex Tracker software corrects for the mass of the crosslinker; monomer measured without crosslinker

Molecule	stoichiometry N [1]	stoichiometry N [2]	stoichiometry N [3]	binding result [2]
RodZ_(ΔKRRKKR) (from UniProt Q3YZ36 1-337) (natural protein)	6			
B1		~2	6.05 times and 6.22 times and 6.03 times	
B2				binds
B3		~6	6.36 times and 6 times	
